Bridges are numbered along the chain shown (N, C = ends). Where no end group is shown, it is not given here. [ ]: non-standard residue; d: D form. S5 = C=CCCC[C@](C)(N)C(=O)O
T1: ANK domain of Notch1 intracellular segment N1ICD (UniProt P46531 1872-2126)
T1 chain: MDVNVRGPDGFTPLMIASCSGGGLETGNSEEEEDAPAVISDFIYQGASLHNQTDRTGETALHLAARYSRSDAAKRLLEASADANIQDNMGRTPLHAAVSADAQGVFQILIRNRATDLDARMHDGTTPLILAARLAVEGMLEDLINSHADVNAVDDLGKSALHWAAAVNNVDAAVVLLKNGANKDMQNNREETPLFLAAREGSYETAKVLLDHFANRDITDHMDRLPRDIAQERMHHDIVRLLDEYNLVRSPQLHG

T2: ANK1 (α-helical region of the ANK domain of N1ICD) (UniProt P46531 1927-1956)
T2 chain: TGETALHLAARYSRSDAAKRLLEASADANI


Tests used:
[1] = target: T1, ANK domain of Notch1 intracellular …; experiment: SPR; FIG. 1D
[2] = target: T1, ANK domain of Notch1 intracellular …; experiment: SPR; FIG. 1C
[3] = target: T1, ANK domain of Notch1 intracellular …; experiment: SPR
[4] = target: T1, ANK domain of Notch1 intracellular …; experiment: SPR
[5] = target: T2, ANK1 (α-helical region of the ANK …); experiment: SPR
ANK6 = experiment: SPR
ANK3 = experiment: SPR
ANK2 = experiment: SPR
ANK4 = experiment: SPR
ANK5 = experiment: SPR

Binder	Kd [3] [nM]	further results
YAKRIFYQLLSKQL [modified AH2 (mAH2), modified α-helice 2]	–	Kd [1]: 45.2 nM; Kd [2]: 60.4 nM
[S5]AKR[S5]FYQLLSKQL (staple 1-5) [SAH-mAH2-1]	134	–
YAKRIFYQLLSKEL [AH2 (α-helix 2 of N1DARP)]	–	Kd [4]: 60.4 nM; Kd [5]: 4340 nM; Kd [1]: 60.4 nM
YAKRIFYALLSKQL [mAH2-8]	87.4	–
YAKRIAYQLLSKQL [mAH2-6]	63.6	–
YAARIFYQLLSKQL [mAH2-3]	51.1	–
YAKRIFYQLLSKEL [AH2]	–	Kd (ANK6): 64200 nM; Kd (ANK3): 85800 nM; Kd (ANK2): 23300 nM; Kd (ANK4): 66100 nM; Kd (ANK5): 42800 nM
YAKRIFYQLLAKQL [mAH2-11]	83.9	–
YAKRIFYQLLSAQL [mAH2-12]	78.2	–
YAKRI[S5]YQLLSK[S5]L (staple 6-13) [SAH-mAH2-5 (stapled α-helix-modified α-helix 2-5)]	0.898	–
YAKRIFYQLASKQL [mAH2-10]	55.5	–
YAKRIFYQALSKQL [mAH2-9]	286	–
AAKRIFYQLLSKQL [mAH2-1]	96.1	–
YAKRIFYQLLSKAL [mAH2-13]	99	–
Y[S5]KRI[S5]YQLLSKQL (staple 2-6) [SAH-mAH2-2]	97.7	–
LLEKKRQY [AH1]	–	Kd [4]: 213 nM
YAKRAFYQLLSKQL [mAH2-5]	57.5	–
YAKAIFYQLLSKQL [mAH2-4]	74.5	–
[S5]AKRIFY[S5]LLSKQL (staple 1-8) [SAH-mAH2-4]	25.8	–
YAKRIFYQLLSKQA [mAH2-14]	5980	–
